What follows are sequences tested on Escherichia coli TOP10 (assay: shrunken log2 fold change of peptide-encoding DNA abundance (4.5 h post-induction vs induction); higher = less antimicrobial activity (less host growth inhibition)). Conditions: time post-induction: 4.5 h; library: site-saturation at positions 5, 18, 19, 20.
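Note: peptides expressed intracellularly from a pBAD plasmid library in pooled LB shake-flask culture, induced with 0.3% L-arabinose, DNA abundance read by NGS, three biological replicates, DESeq2 with apeglm shrinkage.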

| Sequence | shrunken log2 fold change |
| --- | --- |
| RRIRNRPPRLPRPRPRPYNHPRP | -1.85 |
| RRIRNRPPRLPRPRPRPYNWPRP | -0.161 |
| RRIRNRPPRLPRPRPRPYQPPRP | -0.31 |
| RRIRNRPPRLPRPRPRPYQWPRP | -0.098 |
| RRIRNRPPRLPRPRPRPYQYPRP | 0.0162 |
| RRIRNRPPRLPRPRPRPYSPPRP | -0.276 |
| RRIRNRPPRLPRPRPRPYTAPRP | -0.502 |
| RRIRNRPPRLPRPRPRPYTWPRP | -0.547 |
| RRIRNRPPRLPRPRPRPYVYPRP | -1.31 |
| RRIRNRPPRLPRPRPRPYWWPRP | 0.0224 |
| RRIRNRPPRLPRPRPRPYYHPRP | -0.781 |
| RRIRNRPPRLPRPRPRPYYNPRP | -1.49 |
| RRIRNRPPRLPRPRPRPYYPPRP | -0.141 |
| RRIRNRPPRLPRPRPRPYYQPRP | -0.697 |
| RRIRNRPPRLPRPRPRPYYYPRP | -0.0857 |
| RRIRPRPPRLPRPRPRPAAEPRP | 0.595 |
| RRIRPRPPRLPRPRPRPAAQPRP | 0.721 |
| RRIRPRPPRLPRPRPRPACAPRP | 0.593 |
| RRIRPRPPRLPRPRPRPADCPRP | 0.273 |
| RRIRPRPPRLPRPRPRPADEPRP | 0.0954 |
| RRIRPRPPRLPRPRPRPAEWPRP | 0.308 |
| RRIRPRPPRLPRPRPRPAFDPRP | 0.388 |
| RRIRPRPPRLPRPRPRPAGCPRP | 0.386 |
| RRIRPRPPRLPRPRPRPAGYPRP | -0.189 |
| RRIRPRPPRLPRPRPRPAHIPRP | -0.205 |

| Sequence | shrunken log2 fold change |
| --- | --- |
| RRIRPRPPRLPRPRPRPAIKPRP | -0.339 |
| RRIRPRPPRLPRPRPRPAINPRP | -0.142 |
| RRIRPRPPRLPRPRPRPAKAPRP | -0.0289 |
| RRIRPRPPRLPRPRPRPALFPRP | 0.2 |
| RRIRPRPPRLPRPRPRPAPAPRP | 0.425 |
| RRIRPRPPRLPRPRPRPAPPPRP | 0.726 |
| RRIRPRPPRLPRPRPRPARHPRP | 0.616 |
| RRIRPRPPRLPRPRPRPARPPRP | 0.626 |
| RRIRPRPPRLPRPRPRPATAPRP | 0.315 |
| RRIRPRPPRLPRPRPRPAVAPRP | 0.416 |
| RRIRPRPPRLPRPRPRPAVIPRP | -0.007 |
| RRIRPRPPRLPRPRPRPAWHPRP | 0.362 |
| RRIRPRPPRLPRPRPRPAYHPRP | -0.129 |
| RRIRPRPPRLPRPRPRPCARPRP | 0.0698 |
| RRIRPRPPRLPRPRPRPCCRPRP | -0.339 |
| RRIRPRPPRLPRPRPRPCDEPRP | 0.0442 |
| RRIRPRPPRLPRPRPRPCEGPRP | 0.156 |
| RRIRPRPPRLPRPRPRPCESPRP | 0.183 |
| RRIRPRPPRLPRPRPRPCEYPRP | 1.65 |
| RRIRPRPPRLPRPRPRPCGTPRP | 0.155 |
| RRIRPRPPRLPRPRPRPCHHPRP | -0.536 |
| RRIRPRPPRLPRPRPRPCHPPRP | -0.154 |
| RRIRPRPPRLPRPRPRPCIRPRP | -0.14 |
| RRIRPRPPRLPRPRPRPCIWPRP | -0.109 |
| RRIRPRPPRLPRPRPRPCKQPRP | -0.0806 |

| Sequence | shrunken log2 fold change |
| --- | --- |
| RRIRPRPPRLPRPRPRPCLCPRP | -0.222 |
| RRIRPRPPRLPRPRPRPCMCPRP | -0.0305 |
| RRIRPRPPRLPRPRPRPCMRPRP | -0.239 |
| RRIRPRPPRLPRPRPRPCNFPRP | -0.129 |
| RRIRPRPPRLPRPRPRPCQPPRP | -0.0774 |
| RRIRPRPPRLPRPRPRPCQWPRP | 0.205 |
| RRIRPRPPRLPRPRPRPCTEPRP | 0.0737 |
| RRIRPRPPRLPRPRPRPCVCPRP | 0.0289 |
| RRIRPRPPRLPRPRPRPCVNPRP | -0.0713 |
| RRIRPRPPRLPRPRPRPCVYPRP | -0.22 |
| RRIRPRPPRLPRPRPRPCWMPRP | -0.126 |
| RRIRPRPPRLPRPRPRPCWQPRP | -0.021 |
| RRIRPRPPRLPRPRPRPCYIPRP | -0.795 |
| RRIRPRPPRLPRPRPRPCYKPRP | -1.32 |
| RRIRPRPPRLPRPRPRPDALPRP | 0.0315 |
| RRIRPRPPRLPRPRPRPDCEPRP | 0.0556 |
| RRIRPRPPRLPRPRPRPDCHPRP | -0.204 |
| RRIRPRPPRLPRPRPRPDCPPRP | -0.0368 |
| RRIRPRPPRLPRPRPRPDCWPRP | 0.543 |
| RRIRPRPPRLPRPRPRPDDKPRP | -0.0729 |
| RRIRPRPPRLPRPRPRPDECPRP | -0.041 |
| RRIRPRPPRLPRPRPRPDEKPRP | -0.0591 |
| RRIRPRPPRLPRPRPRPDFCPRP | -0.0633 |
| RRIRPRPPRLPRPRPRPDFDPRP | -0.03 |
| RRIRPRPPRLPRPRPRPDFPPRP | -0.0174 |

| Sequence | shrunken log2 fold change |
| --- | --- |
| RRIRPRPPRLPRPRPRPDGRPRP | 0.101 |
| RRIRPRPPRLPRPRPRPDHCPRP | -0.199 |
| RRIRPRPPRLPRPRPRPDHGPRP | -0.0198 |
| RRIRPRPPRLPRPRPRPDHHPRP | -0.543 |
| RRIRPRPPRLPRPRPRPDHKPRP | -0.334 |
| RRIRPRPPRLPRPRPRPDHSPRP | -0.082 |
| RRIRPRPPRLPRPRPRPDHTPRP | 0.0191 |
| RRIRPRPPRLPRPRPRPDIKPRP | -0.317 |
| RRIRPRPPRLPRPRPRPDITPRP | -0.783 |
| RRIRPRPPRLPRPRPRPDKQPRP | 0.0524 |
| RRIRPRPPRLPRPRPRPDLNPRP | 0.168 |
| RRIRPRPPRLPRPRPRPDMMPRP | -0.0321 |
| RRIRPRPPRLPRPRPRPDNEPRP | -0.0784 |
| RRIRPRPPRLPRPRPRPDNMPRP | -0.337 |
| RRIRPRPPRLPRPRPRPDNSPRP | -0.228 |
| RRIRPRPPRLPRPRPRPDQLPRP | -0.0341 |
| RRIRPRPPRLPRPRPRPDQMPRP | 0.196 |
| RRIRPRPPRLPRPRPRPDQQPRP | -0.0644 |
| RRIRPRPPRLPRPRPRPDQRPRP | 0.015 |
| RRIRPRPPRLPRPRPRPDTVPRP | -0.207 |
| RRIRPRPPRLPRPRPRPDVIPRP | -0.0251 |
| RRIRPRPPRLPRPRPRPDVQPRP | 0.234 |
| RRIRPRPPRLPRPRPRPDWSPRP | -0.195 |
| RRIRPRPPRLPRPRPRPDWTPRP | -0.063 |
| RRIRPRPPRLPRPRPRPDYAPRP | 0.0585 |

| Sequence | shrunken log2 fold change |
| --- | --- |
| RRIRPRPPRLPRPRPRPDYNPRP | -0.553 |
| RRIRPRPPRLPRPRPRPECPPRP | 0.353 |
| RRIRPRPPRLPRPRPRPEDEPRP | 0.242 |
| RRIRPRPPRLPRPRPRPEEPPRP | 0.437 |
| RRIRPRPPRLPRPRPRPEHEPRP | 0.0185 |
| RRIRPRPPRLPRPRPRPEHHPRP | -0.0616 |
| RRIRPRPPRLPRPRPRPEHPPRP | 0.231 |
| RRIRPRPPRLPRPRPRPEIAPRP | 0.189 |
| RRIRPRPPRLPRPRPRPEIDPRP | -0.0829 |
| RRIRPRPPRLPRPRPRPEILPRP | 0.0928 |
| RRIRPRPPRLPRPRPRPEIPPRP | 0.0702 |
| RRIRPRPPRLPRPRPRPEKGPRP | 0.321 |
| RRIRPRPPRLPRPRPRPEMAPRP | 0.0664 |
| RRIRPRPPRLPRPRPRPEMCPRP | 0.291 |
| RRIRPRPPRLPRPRPRPEMFPRP | -0.112 |
| RRIRPRPPRLPRPRPRPEMNPRP | -0.381 |
| RRIRPRPPRLPRPRPRPEMPPRP | 0.762 |
| RRIRPRPPRLPRPRPRPEMVPRP | 0.191 |
| RRIRPRPPRLPRPRPRPEPTPRP | 0.416 |
| RRIRPRPPRLPRPRPRPEQGPRP | -0.178 |
| RRIRPRPPRLPRPRPRPEQQPRP | -0.0146 |
| RRIRPRPPRLPRPRPRPEREPRP | 0.49 |
| RRIRPRPPRLPRPRPRPERSPRP | 0.0565 |
| RRIRPRPPRLPRPRPRPESRPRP | 0.11 |
| RRIRPRPPRLPRPRPRPETCPRP | 0.787 |

| Sequence | shrunken log2 fold change |
| --- | --- |
| RRIRPRPPRLPRPRPRPETEPRP | 0.344 |
| RRIRPRPPRLPRPRPRPEVDPRP | 0.155 |
| RRIRPRPPRLPRPRPRPEVEPRP | -0.00972 |
| RRIRPRPPRLPRPRPRPEVKPRP | -0.00169 |
| RRIRPRPPRLPRPRPRPEVNPRP | 0.188 |
| RRIRPRPPRLPRPRPRPEWEPRP | 0.304 |
| RRIRPRPPRLPRPRPRPEWYPRP | 0.203 |
| RRIRPRPPRLPRPRPRPFAEPRP | 0.0204 |
| RRIRPRPPRLPRPRPRPFALPRP | 0.238 |
| RRIRPRPPRLPRPRPRPFCHPRP | -0.00162 |
| RRIRPRPPRLPRPRPRPFCLPRP | -0.0969 |
| RRIRPRPPRLPRPRPRPFCPPRP | -0.345 |
| RRIRPRPPRLPRPRPRPFCTPRP | -0.00789 |
| RRIRPRPPRLPRPRPRPFGAPRP | -0.00494 |
| RRIRPRPPRLPRPRPRPFGHPRP | -0.0335 |
| RRIRPRPPRLPRPRPRPFGSPRP | 0.0959 |
| RRIRPRPPRLPRPRPRPFGTPRP | -0.444 |
| RRIRPRPPRLPRPRPRPFHGPRP | -0.252 |
| RRIRPRPPRLPRPRPRPFHMPRP | -0.301 |
| RRIRPRPPRLPRPRPRPFIGPRP | 0.108 |
| RRIRPRPPRLPRPRPRPFIIPRP | -0.854 |
| RRIRPRPPRLPRPRPRPFKQPRP | -0.258 |
| RRIRPRPPRLPRPRPRPFLIPRP | -0.459 |
| RRIRPRPPRLPRPRPRPFLRPRP | -0.327 |
| RRIRPRPPRLPRPRPRPFMCPRP | -0.164 |
